Results from US20070244108A1.

B1: human hepatic microsomal 11β HSD1 (Homo sapiens) (protein)
chain: MAFMKKYLLPILGLFMAYYYYSANEEFRPEMLQGKKVIVTGASKGIGREMAYHLAKMGAHVVVTARSKETLQKVVSHCLELGAASAHYIAGTMEDMTFAEQFVAQAGKLMGGLDMLILNHITNTSLNLFHDDIHHVRKSMEVNFLSYVVLTVAALPMLKQSNGSIVVVSSLAGKVAYPMVAAYSASKFALDGFFSSIRKEYSVSRVNVSITLCVLGLIDTETAMKAVSGIVHMQAAPKEECALEIIKGGALRQEEVYYDSSLWTTLLIRNPCRKILEFLYSTSYNMDRFINK
B2: Human 11β HSD1 (Homo sapiens) (protein)
chain: B1 chain

Substrate: C[C@]12CCC(=O)C=C1CCC1C2C(=O)C[C@@]2(C)C1CC[C@]2(O)C(=O)CO
Test: cells, lysate or membranes named

Row | Protein | Km (other: 10 μg microsomal protein, 30 min at 37° C., Buffer 1, TLC assay) | Km (other: RIA detection, 10 μg/well microsomal protein, 30 min, buffer 3, 37.0 °C)
1 | B1 | 660 nM | 
2 | B2 |  | 700 nM
